Patent US20220218639A1

B1: tPA: Tissue plasminogen activator, converts plasminogen into plasmin (protein, UniProt P00750 36-562, looked up)
Tissue-type plasminogen …: SYQVICRDEKTQMIYQQHQSWLRPVLRSNRVEYCWCNSGRAQCHSVPVKSCSEPRCFNGGTCQQALYFSDFVCQCPEGFAGKCCEIDTRATCYEDQGISYRGTWSTAESGAECTNWNSSALAQKPYSGRRPDAIRLGLGNHNYCRNPDRDSKPWCYVFKAGKYSSEFCSTPACSEGNSDCYFGNGSAYRGTHSLTESGASCLPWNSMILIGKVYTAQNPSAQALGLGKHNYCRNPDGDAKPWCHVLKNRRLTWEYCDVPSCSTCGLRQYSQPQFRIKGGLFADIASHPWQAAIFAKHRRSPGERFLCGGILISSCWILSAAHCFQERFPPHHLTVILGRTYRVVPGEEEQKFEVEKYIVHKEFDDDTYDNDIALLQLKSDSSRCAQESSVVRTVCLPPADLQLPDWTECELSGYGKHEALSPFYSERLKEAHVRLYPSSRCTSQHLLNRTVTDNMLCAGDTRSGGPQANLHDACQGDSGGPLVCLNDGRMTLVGIISWGLGCGQKDVPGVYTKVTNYLDWIRDNMRP
B2: α2-antiplasmin: Circulating serpin that rapidly inhibits plasmin (protein)
chain: NQEQVSPLTLLKLGNQEPGGQTALKSPPGVCSRDPTPEQTHRLARAMMAFTADLFSLVAQTSTCPNLILSPLSVALALSHLALGAQNHTLQRLQQVLHAGSGPCLPHLLSRLCQDLGPGAFRLAARMYLQKGFPIKEDFLEQSEQLFGAKPVSLTGKQEDDLANINQWVKEATEGKIQEFLSGLPEDTVLLLLNAIHFQGFWRNKFDPSLTQRDSFHLDEQFTVPVEMMQARTYPLRWFLLEQPEIQVAHFPFKNNMSFVVLVPTHFEWNVSQVLANLSWDTLHPPLVWERPTKVRLPKLYLKHQMDLVATLSQLGLQELFQAPDLRGISEQSLVVSGVQHQSTLELSEVGVEAAAATSIAMSRMSLSSFSVNRPFLFFIFEDTTGLPLFVGSVRNPNPSAPRELKEQQDSPGNKDFLQSLKGFPRGDKLFGPDLKLVPPMEEDYPQFGSPK

Key:
preformed blood clots = experiment: In-vitro circulating plasma lung model of pulmonary embolism; conditions: circulating human plasma
Procedure: The in-vitro circulating plasma lung model 200 of pulmonary embolism (as shown in FIGS. 22 and 23), consists of a 3-D printed circuit 210, designed to mimic lung vasculature, and in which preformed blood clots of known mass are placed. This “lung” is in fluid connection with a reservoir 220 of approximately 200-250 mL of human plasma, type-matched to the clots, that is recirculated with a peristaltic pump 230, passed through a heating element (not shown), then pumped through the lung itself at a physiological constant pressure. An injection port 240 allows injection of reagents, enzymes or other molecules. After lysis is initiated, the “lung” is circulated for one hour. Clots are weighed before and after completion of the experiment reweighed, to provide for percentage of clot lysis information for each treatment regime.
In this Example, pulmonary embolism was simulated using the in-vitro lung model of Example 13 and the ability of the delivery system of the present disclosure was analyzed for its ability to remove clots.
Particularly, human plasma (200-250 mL), recirculated (37° C.) and loaded with approximately 4 grams type-matched clots was injected into the delivery system. After 1 hour of circulation, the clots were removed and weighed.

plasmin = plasmin (Homo sapiens, UniProt P00747); conditions: binding to the serine in plasmin's active site; cited from earlier work
Sequence of plasmin (P00747 581-810 limits assumed): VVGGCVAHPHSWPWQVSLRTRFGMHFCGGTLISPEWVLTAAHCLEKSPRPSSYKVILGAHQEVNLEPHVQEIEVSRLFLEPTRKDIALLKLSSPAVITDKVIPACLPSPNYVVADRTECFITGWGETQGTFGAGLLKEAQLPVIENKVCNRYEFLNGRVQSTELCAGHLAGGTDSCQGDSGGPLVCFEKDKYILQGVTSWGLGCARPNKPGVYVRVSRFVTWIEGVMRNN
Sequence of plasmin (P00747 97-580 limits assumed): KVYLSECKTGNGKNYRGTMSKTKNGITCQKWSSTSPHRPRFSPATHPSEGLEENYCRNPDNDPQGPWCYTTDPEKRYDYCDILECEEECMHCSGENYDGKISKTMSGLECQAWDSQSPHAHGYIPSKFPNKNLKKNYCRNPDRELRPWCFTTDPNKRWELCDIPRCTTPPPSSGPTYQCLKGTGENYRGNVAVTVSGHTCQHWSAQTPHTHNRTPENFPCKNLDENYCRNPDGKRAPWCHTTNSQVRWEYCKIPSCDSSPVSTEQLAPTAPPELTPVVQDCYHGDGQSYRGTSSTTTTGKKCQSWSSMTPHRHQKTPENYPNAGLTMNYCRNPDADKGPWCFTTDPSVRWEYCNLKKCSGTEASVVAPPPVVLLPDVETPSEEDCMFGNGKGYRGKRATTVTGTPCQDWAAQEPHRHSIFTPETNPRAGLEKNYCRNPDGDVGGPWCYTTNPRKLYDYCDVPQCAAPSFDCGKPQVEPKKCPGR

Row | Molecule | reduction in antiplasmin (α2 AP) (preformed blood clots) | rate constant of plasmin inhibition (plasmin)
1 | B1 | fully depleted | 
2 | B2 |  | 4×10^7 M^−1Sec^−1
